Assay results: patent publication US20240174763A1 (NOVOPROTEIN SCIENTIFIC, published 2024)

T1: monkey CD73 on CHOK1-cynoCD73 cells (monkey, UniProt A0A2K5V5U7 27-549, GPI anchor at the C-terminus of the mature chain (paragraph 3 says CD73 is GPI-anchored). The propeptide 550-574 is removed.)
T1 construct: also called CHOK1-cyno73 cells; monkey CD73 positive cells
T1 sequence: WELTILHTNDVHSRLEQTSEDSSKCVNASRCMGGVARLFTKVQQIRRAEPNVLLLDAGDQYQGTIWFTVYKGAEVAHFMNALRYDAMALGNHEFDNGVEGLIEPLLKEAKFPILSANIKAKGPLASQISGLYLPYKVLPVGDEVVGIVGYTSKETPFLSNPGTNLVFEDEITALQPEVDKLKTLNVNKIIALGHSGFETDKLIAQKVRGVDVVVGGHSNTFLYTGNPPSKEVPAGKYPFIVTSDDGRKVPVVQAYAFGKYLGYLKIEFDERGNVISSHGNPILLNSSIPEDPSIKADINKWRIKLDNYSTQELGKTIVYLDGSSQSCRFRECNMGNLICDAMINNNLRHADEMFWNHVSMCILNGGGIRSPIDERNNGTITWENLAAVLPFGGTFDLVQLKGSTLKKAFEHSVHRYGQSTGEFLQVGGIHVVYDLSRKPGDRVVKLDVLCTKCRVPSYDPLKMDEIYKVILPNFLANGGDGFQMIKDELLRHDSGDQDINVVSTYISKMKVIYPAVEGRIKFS

T2: recombinant monkey CD73 protein (monkey, UniProt A0A2K5V5U7 27-549)
T2 construct: Monkey species not further named for the recombinant protein (the cell line is called cynoCD73)
T2 sequence: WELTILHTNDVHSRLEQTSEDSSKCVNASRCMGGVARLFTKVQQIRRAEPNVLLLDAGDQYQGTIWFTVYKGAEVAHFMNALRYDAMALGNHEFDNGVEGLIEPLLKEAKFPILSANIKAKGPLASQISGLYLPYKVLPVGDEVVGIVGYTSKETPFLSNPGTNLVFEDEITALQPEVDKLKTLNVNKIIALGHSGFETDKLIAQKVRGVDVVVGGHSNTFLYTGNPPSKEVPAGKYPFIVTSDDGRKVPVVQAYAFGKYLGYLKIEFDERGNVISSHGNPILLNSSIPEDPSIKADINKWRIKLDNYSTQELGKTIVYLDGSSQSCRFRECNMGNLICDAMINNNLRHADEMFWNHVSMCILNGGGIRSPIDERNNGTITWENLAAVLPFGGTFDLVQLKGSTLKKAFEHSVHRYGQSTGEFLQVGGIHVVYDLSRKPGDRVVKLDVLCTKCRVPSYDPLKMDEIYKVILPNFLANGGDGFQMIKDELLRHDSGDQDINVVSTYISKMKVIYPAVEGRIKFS

T3: human CD73 on SK-OV-3 cells (human ovarian adenocarcinoma cells) (human, UniProt P21589 27-549)
T3 construct: whole, on cells; also called human CD73 positive cells
T3 sequence (looked up): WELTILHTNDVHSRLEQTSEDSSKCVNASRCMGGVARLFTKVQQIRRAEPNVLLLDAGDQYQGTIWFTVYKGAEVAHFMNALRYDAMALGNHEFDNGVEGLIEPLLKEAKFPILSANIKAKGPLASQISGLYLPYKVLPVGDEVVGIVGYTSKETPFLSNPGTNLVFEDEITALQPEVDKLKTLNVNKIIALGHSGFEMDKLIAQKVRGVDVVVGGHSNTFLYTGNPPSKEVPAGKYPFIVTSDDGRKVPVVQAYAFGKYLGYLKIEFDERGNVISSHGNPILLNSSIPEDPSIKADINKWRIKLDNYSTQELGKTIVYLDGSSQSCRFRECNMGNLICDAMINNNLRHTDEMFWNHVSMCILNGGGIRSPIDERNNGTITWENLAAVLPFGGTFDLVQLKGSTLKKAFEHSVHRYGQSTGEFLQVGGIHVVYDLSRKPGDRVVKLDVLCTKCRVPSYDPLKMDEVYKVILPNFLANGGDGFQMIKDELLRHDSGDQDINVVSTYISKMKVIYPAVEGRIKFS

T4: recombinant human CD73 protein (human, UniProt P21589 27-547, limits assumed)
T4 construct: Bought recombinant protein; the assays only say recombinant human CD73; also called rhCD73; recombinant hCD73 protein
T4 sequence (looked up): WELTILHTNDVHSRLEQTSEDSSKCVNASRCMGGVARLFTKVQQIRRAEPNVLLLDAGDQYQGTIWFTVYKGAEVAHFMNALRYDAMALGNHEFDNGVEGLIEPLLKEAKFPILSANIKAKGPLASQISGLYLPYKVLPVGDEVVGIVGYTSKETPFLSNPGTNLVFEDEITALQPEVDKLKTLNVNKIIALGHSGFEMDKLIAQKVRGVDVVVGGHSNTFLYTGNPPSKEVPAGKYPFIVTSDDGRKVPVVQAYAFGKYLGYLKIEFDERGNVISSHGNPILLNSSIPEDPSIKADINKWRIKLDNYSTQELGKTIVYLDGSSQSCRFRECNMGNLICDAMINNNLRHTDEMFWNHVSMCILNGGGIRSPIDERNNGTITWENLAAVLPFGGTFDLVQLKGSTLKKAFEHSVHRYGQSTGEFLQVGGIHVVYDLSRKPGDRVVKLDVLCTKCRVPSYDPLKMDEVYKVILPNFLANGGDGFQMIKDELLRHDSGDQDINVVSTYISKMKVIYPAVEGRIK


What was measured:
[1] = target: T1, monkey CD73 on CHOK1-cynoCD73 cells; assay: flow cytometry on CHOK1-cynoCD73 cells
[2] = target: T2, recombinant monkey CD73 protein; assay: ELISA, recombinant monkey CD73
[3] = target: T3, human CD73 on SK-OV-3 cells (human …); assay: flow cytometry on SK-OV-3 cells
[4] = target: T1, monkey CD73 on CHOK1-cynoCD73 cells; assay: flow cytometry on CHOK1-cynoCD73 cells; remark: listed apart in the source
[5] = target: T3, human CD73 on SK-OV-3 cells (human …); assay: flow cytometry on SK-OV-3 cells, anti-hFc-APC
[6] = target: T4, recombinant human CD73 protein; assay: ELISA, recombinant human CD73
[7] = target: T4, recombinant human CD73 protein; assay: ELISA, recombinant human CD73 coated at 3 ug/mL

Binder	EC50 [1] [µg/mL]	EC50 [2] [µg/mL]	EC50 [3] [µg/mL]	EC50 (read off the curve) [4] [µg/mL]	EC50 (read off the curve) [5] [µg/mL]	EC50 [6] [µg/mL]	EC50 (read off the curve) [7] [µg/mL]
humanized CQ137 monoclonal antibody (137-5) (antibody, V domains shown) VH: QVQLVQSGAEVKKPGSSVKVSCKASGYSFTGYYIHWVRQAPGQGLEWMGRINPYNGATTYNQNFKDRVTITVDKSTSTAYMELSSLRSEDTAVYYCARFHYGAADYWGQGTLVTVSS VL: DIQMTQSPSSLSASVGDRVTITCKASQDINTYLTWYQQKPGKAPKTLIYRANILVDGVPSRFSGSGSGTDFTLTISSLQPEDFATYYCLQYNEFPLTFGGGTKVEIKR	0.0154	0.734	0.0234	~0.02	~0.02	0.387	
humanized CQ137 monoclonal antibody (137-7) (antibody, V domains shown) VH: QVQLVQSGAEVKKPGSSVKVSCKASGYSFTGYYIHWVRQAPGQGLEWMGRINPYNGATTYNQNFKDRVTITVDKSTSTAYMELSSLRSEDTAVYYCARFHYGAPNYWGQGTLVTVSS VL: DIQMTQSPSSLSASVGDRVTITCKASQDINTYLTWYQQKPGKAPKTLIYRANILVDGVPSRFSGSGSGTDFTLTISSLQPEDFATYYCLQYDDFPLTFGGGTKVEIKR	0.0239	6.57	0.0301	~0.02		0.5	

The next lines start with the values.

EC50 [1] [µg/mL]	EC50 [2] [µg/mL]	EC50 [3] [µg/mL]	EC50 (read off the curve) [4] [µg/mL]	EC50 (read off the curve) [5] [µg/mL]	EC50 [6] [µg/mL]	EC50 (read off the curve) [7] [µg/mL]	Binder
0.00782	3.76	0.00487	~0.008	~0.005	0.312	~0.3	humanized CQ137 monoclonal antibody (137-8) (antibody, V domains shown) VH: QVQLVQSGAEVKKPGSSVKVSCKASGYSFTGYYIHWVRQAPGQGLEWMGRINPYNGATTYNQNFKDRVTITVDKSTSTAYMELSSLRSEDTAVYYCARFHYGAPDFWGQGTLVTVSS VL: DIQMTQSPSSLSASVGDRVTITCKASQDINTYLTWYQQKPGKAPKTLIYRANILVDGVPSRFSGSGSGTDFTLTISSLQPEDFATYYCLQYDQFPLTFGGGTKVEIKR
0.0193	3.76	0.0331	~0.02	~0.03	0.446	~0.4	humanized CQ137 monoclonal antibody (137-9) (antibody, V domains shown) VH: QVQLVQSGAEVKKPGSSVKVSCKASGYSFTGYYIHWVRQAPGQGLEWMGRINPYNGATTYNQNFKDRVTITVDKSTSTAYMELSSLRSEDTAVYYCARFHYGAPDLWGQGTLVTVSS VL: DIQMTQSPSSLSASVGDRVTITCKASQDINTYLTWYQQKPGKAPKTLIYRANILVDGVPSRFSGSGSGTDFTLTISSLQPEDFATYYCLQYDAFPLTFGGGTKVEIKR
